Drawing on article PMC10922792 (Journal of molecular biology, 2024), this text covers Kd for one molecule.

The target of the experiment is T1, hPASK PAS-A domain (residues 131–237) (human, UniProt Q96RG2 131-237, uniformly 15N-labeled).
T1 sequence (looked up): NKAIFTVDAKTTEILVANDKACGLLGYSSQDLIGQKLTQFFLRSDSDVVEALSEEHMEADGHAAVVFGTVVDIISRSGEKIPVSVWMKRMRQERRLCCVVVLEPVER
Description: NMR titration.

On to MRGAAGLQREIQEGAYSGSCYHRDGL (peptide, UniProt Q96RG2 879-904, looked up) [PIM peptide (PASK AA 879–904)], for which the affinity, expressed as Kd, was 2400 µM.
